± gives the uncertainty stated by the source.
Assay: self-splicing fitness, log relative to wild type (ln ratio); higher = more splicing; Tetrahymena group I intron in knt gene, E. coli kanamycin selection, DiMSum; sequences stand for … in CUCUCU…GGAGGGAAAAGUUAUCAGGCAUGCACCUGGUAGCUAGUCUUUAAACCAAUAGAUUGCAUCGGUUUAAAAGGCAAGACCGUCAAAUUGCGGGAAAGGGGUCAACAGCCGUUCAGUACCAAGUCUCAGGGGAAACUUUGAGAUGGCCUUGCAAAGGGUAUGGUAAUAAGCUGACGGACAUGGUCCUAACCACGCAGCCAAGUCCUAAGUCAACAGAUCUUCUGUUGAUAUGGAUGCAGUUCACAGACUAAAUGUCGGUCGGGGAAGAUGUAUUCUUCUCAUAAGAUAUAGUCGGACCUCUCCUUAAUGGGAGCUAGCGGAUGAAGUGAUGCAACACUGGAGCCGCUGGGAACUAAUUUGUAUGCGAAAGUAUAUUGAUUAGUUUUGGAGUACUCGUGGUCG
Summary of the method: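 Library with all eight P1ex-region intron nucleotides randomised, intron inside the knt kanamycin-resistance gene on pET-22b(+), in E. coli BL21(DE3). Cells grew overnight at 37°C or 30°C on LB agar with or without 25 μg/mL kanamycin (plus 100 μg/mL carbenicillin, 50 μM IPTG, 0.2% rhamnose), in six replicate transformations. Pooled colonies were amplicon-sequenced on Illumina HiSeq 2500. DiMSum fitness is the error-weighted combination of wild-type-normalised replicate fold changes, kanamycin versus none.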

Row | Sequence | self-splicing fitness (ln) (30 °C) | self-splicing fitness (ln) (37 °C)
1 | GAGCAGCAAUAUUACGGGCU | -3.92 ± 0.28 | -2.55 ± 0.34
2 | GAGCAGCAAUAUUACGGUAG | -4.29 ± 0.2 | -3.24 ± 0.24
3 | GAGCAGCAAUAUUACGGUCU | -0.727 ± 0.12 | -0.857 ± 0.14
4 | GAGCAGCAAUAUUACGUACG | -3.24 ± 0.21 | -1.38 ± 0.17
5 | GAGCAGCAAUAUUACGUACU | -0.0719 ± 0.068 | -0.502 ± 0.085
6 | GAGCAGCAAUAUUACGUGUA | -2 ± 0.12 | -0.876 ± 0.094
7 | GAGCAGCAAUAUUACGUUGA | -2.38 ± 0.17 | -1.32 ± 0.13
8 | GAGGAGCAAUAUUACGAAAG |  | -2.01 ± 0.33
9 | GAGGAGCAAUAUUACGAAGC | -1.73 ± 0.32 | -2.22 ± 0.4
10 | GAGGAGCAAUAUUACGAAUU | -3.43 ± 0.3 | 
11 | GAGGAGCAAUAUUACGACGC | -0.403 ± 0.15 | 0.209 ± 0.14
12 | GAGGAGCAAUAUUACGAUCG | -2.15 ± 0.22 | -1.2 ± 0.32
13 | GAGGAGCAAUAUUACGCAAC | -2.75 ± 0.38 | 
14 | GAGGAGCAAUAUUACGCAGU | -2.89 ± 0.28 | -3.66 ± 0.42
15 | GAGGAGCAAUAUUACGCGGG | -2.11 ± 0.31 | -2.66 ± 0.34
16 | GAGGAGCAAUAUUACGCUCU | -2.18 ± 0.42 | -1.73 ± 0.47
17 | GAGGAGCAAUAUUACGCUUA | -1.5 ± 0.16 | -1.42 ± 0.21
18 | GAGGAGCAAUAUUACGGAGC |  | -0.748 ± 0.26
19 | GAGGAGCAAUAUUACGGCAU |  | -1.87 ± 0.46
20 | GAGGAGCAAUAUUACGGCCC | -0.89 ± 0.29 | -0.616 ± 0.49
21 | GAGGAGCAAUAUUACGGCGU | -1.72 ± 0.16 | -0.0856 ± 0.14
22 | GAGGAGCAAUAUUACGGGCU | -2.72 ± 0.48 | -1.83 ± 0.29
23 | GAGGAGCAAUAUUACGGUCG | -1.43 ± 0.14 | -2.19 ± 0.29
24 | GAGGAGCAAUAUUACGGUUG | -3.94 ± 0.23 | -2.17 ± 0.2
25 | GAGGAGCAAUAUUACGUAGA | -4 ± 0.24 | -2.22 ± 0.19

Row | Sequence | self-splicing fitness (ln) (30 °C) | self-splicing fitness (ln) (37 °C)
26 | GAGGAGCAAUAUUACGUCAU | -2.41 ± 0.39 | -2.26 ± 0.4
27 | GAGGAGCAAUAUUACGUGUA |  | -3.62 ± 0.35
28 | GAGGAGCAAUAUUACGUUAC | -3.66 ± 0.25 | -3.09 ± 0.4
29 | GAGUAGCAAUAUUACGAAAC | -2.82 ± 0.32 | -2.56 ± 0.27
30 | GAGUAGCAAUAUUACGAACG | -2.36 ± 0.48 | 
31 | GAGUAGCAAUAUUACGAAUU | -2.14 ± 0.22 | -1.36 ± 0.17
32 | GAGUAGCAAUAUUACGACUG | 0.34 ± 0.24 | -0.96 ± 0.21
33 | GAGUAGCAAUAUUACGAGAU | -4.02 ± 0.29 | -2.51 ± 0.28
34 | GAGUAGCAAUAUUACGAUAU | -2.42 ± 0.1 | -1.51 ± 0.14
35 | GAGUAGCAAUAUUACGCACC | -0.317 ± 0.25 | -1.31 ± 0.24
36 | GAGUAGCAAUAUUACGCGGC |  | -1.74 ± 0.45
37 | GAGUAGCAAUAUUACGGCCC | -0.847 ± 0.18 | 0.0966 ± 0.35
38 | GAGUAGCAAUAUUACGGCGA | -0.645 ± 0.16 | -0.441 ± 0.2
39 | GAGUAGCAAUAUUACGGCUC | -2.59 ± 0.37 | -2.51 ± 0.48
40 | GAGUAGCAAUAUUACGGGAC | -3.17 ± 0.35 | -1.41 ± 0.22
41 | GAGUAGCAAUAUUACGGGGG |  | -3.08 ± 0.35
42 | GAGUAGCAAUAUUACGGUCG | -1.15 ± 0.16 | -0.697 ± 0.19
43 | GAGUAGCAAUAUUACGUCCC | -0.805 ± 0.21 | -0.255 ± 0.23
44 | GAGUAGCAAUAUUACGUUGC | -3.27 ± 0.23 | -1.79 ± 0.27
45 | GAUAAGCAAUAUUACGACCA | -1.18 ± 0.14 | -0.0759 ± 0.21
46 | GAUAAGCAAUAUUACGACUG | -1.18 ± 0.2 | 0.14 ± 0.25
47 | GAUAAGCAAUAUUACGAGAG | -2.84 ± 0.26 | -3.04 ± 0.4
48 | GAUAAGCAAUAUUACGAUUC | -1.39 ± 0.14 | -1.41 ± 0.17
49 | GAUAAGCAAUAUUACGCAAA | -1.8 ± 0.16 | -1.49 ± 0.2
50 | GAUAAGCAAUAUUACGCCGU | -0.976 ± 0.15 | -0.545 ± 0.17

Row | Sequence | self-splicing fitness (ln) (30 °C) | self-splicing fitness (ln) (37 °C)
51 | GAUAAGCAAUAUUACGCGCG | -0.359 ± 0.096 | 0.119 ± 0.15
52 | GAUAAGCAAUAUUACGCGUU | -2.05 ± 0.14 | -2.95 ± 0.32
53 | GAUAAGCAAUAUUACGCUGU | -3.45 ± 0.18 | -2.18 ± 0.2
54 | GAUAAGCAAUAUUACGCUUU | -1.7 ± 0.14 | -2.17 ± 0.21
55 | GAUAAGCAAUAUUACGGAAU | -3.09 ± 0.14 | -2.28 ± 0.14
56 | GAUAAGCAAUAUUACGGCAU | -0.333 ± 0.06 | 0.188 ± 0.085
57 | GAUAAGCAAUAUUACGGCUC | -0.362 ± 0.17 | 0.29 ± 0.2
58 | GAUAAGCAAUAUUACGGGGU | -3.97 ± 0.25 | -1.74 ± 0.16
59 | GAUAAGCAAUAUUACGGUGU | -2.61 ± 0.12 | -1.59 ± 0.11
60 | GAUAAGCAAUAUUACGUACG | -1.67 ± 0.1 | -0.494 ± 0.11
61 | GAUAAGCAAUAUUACGUAGA | -3.26 ± 0.22 | -0.548 ± 0.14
62 | GAUAAGCAAUAUUACGUAGG | -3.01 ± 0.13 | -1.86 ± 0.15
63 | GAUAAGCAAUAUUACGUCAG | -4.56 ± 0.32 | -2.5 ± 0.23
64 | GAUAAGCAAUAUUACGUCGA | -1.54 ± 0.14 | -0.37 ± 0.13
65 | GAUAAGCAAUAUUACGUGUA | -2.1 ± 0.14 | -1.04 ± 0.14
66 | GAUAAGCAAUAUUACGUUAU | -2.81 ± 0.1 | -1.63 ± 0.1
67 | GAUAAGCAAUAUUACGUUCA | -0.732 ± 0.093 | -0.316 ± 0.12
68 | GAUAAGCAAUAUUACGUUCU | -1.8 ± 0.14 | -2.58 ± 0.29
69 | GAUAAGCAAUAUUACGUUUC | -3.88 ± 0.18 | -2.34 ± 0.2
70 | GAUCAGCAAUAUUACGACGC | -0.169 ± 0.077 | 0.198 ± 0.09
71 | GAUCAGCAAUAUUACGAGAG | -1.7 ± 0.082 | -0.506 ± 0.082
72 | GAUCAGCAAUAUUACGCAAC | -1.5 ± 0.13 | -0.455 ± 0.17
73 | GAUCAGCAAUAUUACGCACA | -0.0131 ± 0.12 | 0.404 ± 0.13
74 | GAUCAGCAAUAUUACGCAUC | -4.75 ± 0.31 | -3.11 ± 0.24
75 | GAUCAGCAAUAUUACGCUAC | -3.38 ± 0.48 | -1.62 ± 0.29

Row | Sequence | self-splicing fitness (ln) (30 °C) | self-splicing fitness (ln) (37 °C)
76 | GAUCAGCAAUAUUACGCUGC | -3.18 ± 0.19 | -2.18 ± 0.23
77 | GAUCAGCAAUAUUACGGCGA | -0.479 ± 0.15 | -0.214 ± 0.15
78 | GAUCAGCAAUAUUACGGGUU | -3.12 ± 0.26 | -2.88 ± 0.38
79 | GAUCAGCAAUAUUACGGUAG | -0.683 ± 0.084 | 0.269 ± 0.1
80 | GAUCAGCAAUAUUACGGUCA | -1.6 ± 0.14 | -0.459 ± 0.1
81 | GAUCAGCAAUAUUACGGUUG | -1.02 ± 0.053 | -0.343 ± 0.073
82 | GAUCAGCAAUAUUACGUAAC | -0.807 ± 0.093 | -0.643 ± 0.13
83 | GAUCAGCAAUAUUACGUACC | -0.223 ± 0.073 | -0.245 ± 0.099
84 | GAUCAGCAAUAUUACGUACU | -0.188 ± 0.067 | -0.441 ± 0.074
85 | GAUCAGCAAUAUUACGUCCU | -0.874 ± 0.1 | -0.0507 ± 0.092
86 | GAUCAGCAAUAUUACGUCGC | -1.11 ± 0.1 | 0.0313 ± 0.11
87 | GAUCAGCAAUAUUACGUGGA | -2.82 ± 0.26 | -1.22 ± 0.13
88 | GAUGAGCAAUAUUACGACAC | -1.25 ± 0.15 | -0.309 ± 0.16
89 | GAUGAGCAAUAUUACGAGAC | -2.67 ± 0.25 | -1.97 ± 0.3
90 | GAUGAGCAAUAUUACGAUAA | -3.49 ± 0.43 | -1.6 ± 0.33
91 | GAUGAGCAAUAUUACGCAGA | -3.98 ± 0.43 | -0.801 ± 0.19
92 | GAUGAGCAAUAUUACGCAUG | -1.61 ± 0.13 | -2.14 ± 0.2
93 | GAUGAGCAAUAUUACGCCAA | -2.45 ± 0.26 | -2.61 ± 0.29
94 | GAUGAGCAAUAUUACGCCGA |  | -1.44 ± 0.45
95 | GAUGAGCAAUAUUACGCGAG | -0.593 ± 0.16 | -0.578 ± 0.2
96 | GAUGAGCAAUAUUACGCGGC |  | -2.77 ± 0.38
97 | GAUGAGCAAUAUUACGCUCU | -3.24 ± 0.36 | -2.02 ± 0.44
98 | GAUGAGCAAUAUUACGCUGA | -3.11 ± 0.44 | -2.46 ± 0.38

Source: the supplement of paper PMC7877785
